Patent US20200138943A1 (Janssen / Centocor, published 2020)
Residue numbers refer to the chain shown, from its start.

T1: human recombinant IL-23 (human, UniProt P29460 23-328)
T1 construct: p19-p40 heterodimer; also called hrIL-23; hIL-23
T1 sequence 1: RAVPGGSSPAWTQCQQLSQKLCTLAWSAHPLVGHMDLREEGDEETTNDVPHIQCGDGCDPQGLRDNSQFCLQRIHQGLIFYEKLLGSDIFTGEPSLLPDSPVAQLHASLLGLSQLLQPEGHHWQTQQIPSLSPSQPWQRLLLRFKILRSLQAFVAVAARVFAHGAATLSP
T1 sequence 2: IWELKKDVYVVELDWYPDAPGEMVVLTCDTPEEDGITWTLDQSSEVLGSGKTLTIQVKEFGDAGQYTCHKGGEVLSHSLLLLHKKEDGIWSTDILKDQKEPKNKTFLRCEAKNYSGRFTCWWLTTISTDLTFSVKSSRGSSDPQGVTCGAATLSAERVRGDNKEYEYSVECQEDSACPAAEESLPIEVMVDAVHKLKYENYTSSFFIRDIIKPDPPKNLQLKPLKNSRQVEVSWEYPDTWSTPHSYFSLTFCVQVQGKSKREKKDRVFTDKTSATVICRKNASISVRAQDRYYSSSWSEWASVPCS

T2: murine IL-23 (mouse, UniProt Q9EQ14 22-196; P43432 23-335)
T2 construct: also called mouse IL-23
T2 sequence (looked up) 1: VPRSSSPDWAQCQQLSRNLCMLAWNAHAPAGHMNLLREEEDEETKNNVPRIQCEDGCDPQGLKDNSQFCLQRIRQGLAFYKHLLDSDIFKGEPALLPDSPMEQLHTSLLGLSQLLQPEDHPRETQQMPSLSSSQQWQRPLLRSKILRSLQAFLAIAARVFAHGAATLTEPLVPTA
T2 sequence (looked up) 2: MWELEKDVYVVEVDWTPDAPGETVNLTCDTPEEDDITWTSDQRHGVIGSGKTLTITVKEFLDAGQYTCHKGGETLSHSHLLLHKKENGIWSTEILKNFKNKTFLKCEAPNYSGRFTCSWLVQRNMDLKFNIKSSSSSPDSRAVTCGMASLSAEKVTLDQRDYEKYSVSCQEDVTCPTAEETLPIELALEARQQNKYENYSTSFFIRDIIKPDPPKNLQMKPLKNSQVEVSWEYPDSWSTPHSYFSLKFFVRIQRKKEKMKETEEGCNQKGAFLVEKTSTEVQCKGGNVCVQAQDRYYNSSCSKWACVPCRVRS

T3: human recombinant p40 monomer (human, UniProt P29460 23-328)
T3 construct: also called hrp40
T3 sequence (looked up): T1 sequence 2

T4: human recombinant IL-12 (human, UniProt P29459 23-219; P29460 23-328)
T4 construct: p35-p40 heterodimer; also called hrIL-12
T4 sequence (looked up) 1: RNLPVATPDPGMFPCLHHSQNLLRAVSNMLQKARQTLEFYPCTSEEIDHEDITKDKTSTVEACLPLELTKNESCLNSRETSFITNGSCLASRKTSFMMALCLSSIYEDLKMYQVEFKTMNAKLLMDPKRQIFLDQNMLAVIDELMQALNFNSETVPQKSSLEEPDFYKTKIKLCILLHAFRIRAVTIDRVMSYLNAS
T4 sequence (looked up) 2: T1 sequence 2

B1: C1249 (antibody, V domains shown)
VH: EVQLVESGGGLVQPKGSLKLSCAASGFNFNTYAMHWVCQAPGKGLEWIGRIRSKSHNYATDYADPVKDRFTISRDDSQGLLYLLMNNLKTEDTAMYYCMREGIYGSFAYWGQGTLVTVSA
VL: DIVLTQSPASLAVSLGQRATISCRASKSVSSSAYSFFHWYQQKPGQPPKLLIYLASNLQSGVPARFSGSGSGTDFTLNIHPVEAEDAATYYCQHSGELPFTFGSGTKLEIK
notes: Purified mouse monoclonal antibody; also called IL-23p19 mAb; mouse anti-human IL-23 mAb
B2: C1269 (antibody, V domains shown)
VH: DVNLVESGGGLVKPGGSLKLSCAASGFTFSSYTMSWVRQTPEKRLEWVATISSGGTYTYYPDSVKGRFTISRDNAKNTLYLQMSSLKSEDTAIFYCTRDNHAYDRGPFFDSWGQGATLTVSS
VL: DIVMSQSPSSLAVSVGEKVTMSCKSSQNLFYRNNQKNYLAWYQQKPGQSPTLLIYWTSTRESGVPDRFTGSGSGTDFTLTISRVKAEDLAVYYCQQYYSYPPTFGGGTKLEIK
notes: as for B1
B3: C1273 (antibody, V domains shown)
VH: B2 VH with I93M, S111Y
VL: B2 VL with A12V, N33S, Y38H
notes: as for B1
B4: C1275 (antibody, V domains shown)
VH: EVNLEESGGGLVQPGRSMKLSCVASGFTFSNYWMTWVRQSPEKGLEWVAEIRLKSNNYATHYAESVKGRFTISRDDSKSSVYLQMNNLRAEDTAIYYCTRGGGYDVGAWFAYWGQGTLVTVSA
VL: DIVLTQSPASLAVSLGQRATISCRASENVEYYGTGLIQWYQQKPGQPPKLLIYASSNVESGVPARFSGSGSGTDFSLYIHPVEEDDIAMYFCQQSRKVPSTFGGGTKLEIK
notes: as for B1
B5: Soluble IL-23R (IL-23R-Fc) (Fc fusion, UniProt Q5VWK5 24-353, looked up, not shown: a dimerising Fc or GST)
chain: GITNINCSGHIWVEPATIFKMGMNISIYCQAAIKNCQPRKLHFYKNGIKERFQITRINKTTARLWYKNFLEPHASMYCTAECPKHFQETLICGKDISSGYPPDIPDEVTCVIYEYSGNMTCTWNAGKLTYIDTKYVVHVKSLETEEEQQYLTSSYINISTDSLQGGKKYLVWVQAANALGMEESKQLQIHLDDIVIPSAAVISRAETINATVPKTIIYWDSQTTIEKVSCEMRYKATTNQTWNVKEFDTNFTYVQQSEFYLEPNIKYVFQVRCQETGKRYWQPWSSLFFHKTPETVPQVTSKAFQHDTWNSGLTVASISTGHLTSDNRGD

What was measured:
[1] = biological target: mutant human IL-23 protein 3397 (human) (UniProt P29460); assay: MSD ELISA, coated IL-23 protein, Sulfo-TAG labeled mAb
[2] = biological target: mutant human IL-23 protein 3220 (human) (UniProt P29460); assay: as above
human recombinant IL-23 [3] = biological target: T1, human recombinant IL-23; assay: ELISA: mAb immobilized on the plate, biotinylated IL-23 (bt.IL-23) titrated from about 0.01 to 100 ng/ml
murine IL-23 = biological target: T2, murine IL-23; assay: MSD ELISA: protein coated at 100 to 0 µg/mL, detected with 2 µg/mL Sulfo-TAG labeled mAb
Procedure: One-hundred and fifty μl of 5% MSD Blocker A buffer was added to each well and incubated for 1 hr at room temperature. Plates were washed three times with 0.1 M HEPES buffer, pH 7.4. These protein-charged ELISA micro-wells were incubated with 25 μl of 2 μg/mL MSD Sulfo-TAG labeled C1249, C1269, or CNTO 209 mAbs. After incubation for 2 hours with shaking at room temperature, plates were washed 3 times with 0.1 M HEPES buffer (pH 7.4). MSD Read Buffer T was diluted with distilled water (4 fold) and dispensed at a volume of 150 μl/well and analyzed with a SECTOR imager 6000.

[4] = biological target: T3, human recombinant p40 monomer; assay: cytokine capture ELISA: mAb coated on the plate, cytokine at 100 ng/ml, detected with biotinylated anti-p40 mAb and HRP-streptavidin
Procedure: (§1) Purified mouse anti-human IL-23 mAbs were evaluated in cytokine capture ELISA to determine their antigen subunit specificity. Briefly, IL-23 mAbs were coated onto plates and incubated with 100 ng/ml (hr=human recombinant) hrIL-23, hrIL-12, and hrp40, respectively. Following incubation with biotinylated anti-p40 mAb, the binding was detected using HRP-conjugated streptavidin. An anti-p40 mAb and an anti-IL-12 mAb (20C2, Catalog No. 555065, BD Pharmingen, San Diego, Calif.) with known specificity were used as controls.

human recombinant IL-12 = biological target: T4, human recombinant IL-12; assay: as above
Procedure: as §1

human recombinant IL-23 [5] = biological target: T1, human recombinant IL-23; assay: competition ELISA: hIL-23 coated on the plate, 10 nM labeled C1269 mixed with the unlabeled competitor titrated from 3000 nM to 0
Procedure: […] of a 20 μg/ml hIL-23 coated on plate, mixed with 10 nM of labeled C1269 and serially diluted from 3000 nM to 0 unlabeled competitors, C1269 and C1249, in 25 μL. Relative binding was calculated by setting the signal in the absence of competitor to 100%.

human recombinant IL-23 [6] = biological target: T1, human recombinant IL-23; assay: blocking ELISA: biotinylated hrIL-23 preincubated with the titrated mAb, binding to plate-immobilized IL-23R detected with HRP-streptavidin
Procedure: (§2) In this experiment, IL-23R was immobilized on a plate. Biotinylated hrIL-23 was added to the plate either alone or after preincubation with individual IL-23p19 mAbs. Soluble IL-23R (IL-23R-Fc) was used as a positive control. IL-23 binding was detected with HRP-conjugated streptavidin. […] In contrast, when IL-12Rβ1 was immobilized on a plate, none of the IL-23p19 mAbs were able to inhibit IL-23/IL-12Rβ1 binding (data not shown).

human recombinant IL-23 [7] = biological target: T1, human recombinant IL-23; assay: blocking ELISA: biotinylated hrIL-23 preincubated with the titrated protein, binding to plate-immobilized IL-23R detected with HRP-streptavidin
Procedure: as §2

human recombinant IL-23 [8] = biological target: T1, human recombinant IL-23; assay: as above; remark: listed apart in the source
Procedure: as §2

| Binder | percent reduction of binding against wild-type human IL-23 [1] | percent reduction of binding activity against wild-type human IL-23 [2] | binding result (human recombinant IL-23 [3]) | binding result (murine IL-23) | binding result [4] | binding result (human recombinant IL-12) | IC50 (read off the curve) (human recombinant IL-23 [5]) | IC50 (read off the curve) (human recombinant IL-23 [6]) | IC50 (read off the curve) (human recombinant IL-23 [7]) | IC50 (read off the curve) (human recombinant IL-23 [8]) |
| --- | --- | --- | --- | --- | --- | --- | --- | --- | --- | --- |
| B1 | 95% | > 80% | binds | no binding | no binding (tested: 100 ng/ml) | no binding (tested: 100 ng/ml) |  |  |  |  |
| B2 | 90% | > 80% |  | no binding | no binding (tested: 100 ng/ml) | no binding (tested: 100 ng/ml) | ~20 nM | ~0.07 µg/mL |  |  |
| B3 |  |  |  |  | no binding (tested: 100 ng/ml) | no binding (tested: 100 ng/ml) |  | ~0.1 µg/mL |  |  |
| B4 |  |  | binds |  | no binding (tested: 100 ng/ml) | no binding (tested: 100 ng/ml) |  |  |  |  |
| B5 |  |  |  |  |  |  |  |  | ~0.05 µg/mL | ~0.04 µg/mL |
